Laboratory results taken from the supplement of paper PMC10567573.

B1: RHOBTB3 (parent)
chain: KVVEAHKIVLCAVSHVFMLLFNVK
B2: P2RY14 (parent)
chain: KLLSVIVWMLMLLLAVPNIILTNQ

Variants of: B1
Experiment: protein stability index of a GFP-peptide fusion (GPS, HEK-293T) (PSI 1-6); higher = more stable
Conditions: c terminus: a fixed tail appended
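Note: lentivirally expressed fusions sorted by FACS into six bins by GFP to DsRed ratio, PSI derived from sequencing read proportions per bin multiplied by bin number.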

Protein stability index: each site, then its substitutions
V3: C 2.3 | F 3.62 | Q 3.48 | G 2.38 | M 3.1 | D 2.2 | L 2.09 | E 1.82 | K 3.12 | P 3.35 | N 3.87 | I 3.11
K1: T 2.71 | C 3.06 | G 2.31 | S 2.46 | D 4.55 | N 2.52 | E 3.04 | H 2.2 | R 2.68 | P 3.1 | A 3.06 | Q 1.9 | L 3.15 | F 4.17 | I 2.87 | Y 2.58 | W 3.19
V2: I 3.58 | F 2.5 | G 2.64 | D 2.57 | T 2.6 | E 2.64 | K 1.62 | Y 1.86 | M 2.9 | A 2.96 | Q 2.04 | S 3.24 | P 3.44 | N 2.44 | L 2.32 | C 2.18

Variants of: B2
Experiment: as above
Conditions: c terminus: a fixed tail appended

Protein stability index, by site and new letter:
Q24: C 2.79 | W 2.33 | I 2.79 | P 2.59 | T 2.81 | R 3.28 | F 2.69 | E 2.74 | G 2.91 | D 4.62 | H 2.8 | K 2.6 | V 1.96 | L 3.08
T22: Y 3.3 | V 4.59 | F 2.97 | K 3.2 | A 2.75 | N 2.75 | M 2.38 | I 2.32 | S 3.96 | H 2.69 | D 4.01 | L 2.2 | W 2.92
L14: I 2.49 | C 2.41 | D 3.07 | K 2.95 | G 2.27 | M 3.33 | A 2.24 | H 2.92 | E 3.48 | S 3.42 | P 4.16 | N 2.75 | T 3.16 | V 1.32 | W 2.51
I6: D 2.02 | A 2.45 | S 2.39 | F 2.8 | W 2.02 | L 4.14 | R 2.43 | T 2.48 | G 2.2 | M 3.13 | V 4.09 | N 3.01 | P 1.89
P17: R 2.8 | A 2.56 | Y 1.54 | K 3.35 | D 2.68 | E 3 | T 2.4 | F 2.69 | L 2.97 | Q 2.82 | V 1.23 | H 2.96 | I 1.95 | G 3.39 | S 3.12 | M 1.52 | W 1.98 | C 2.41 | N 2.08
I20: Y 3.09 | N 2.31 | C 1.86 | A 2.31 | V 2.79 | S 3.35 | F 2.73 | L 2.52 | P 4.08 | D 3.27 | E 3.69 | K 3.1
V5: P 2.54 | G 4.02 | T 3.51 | H 3.85 | E 2.42 | N 2.29 | M 1.71 | D 3.22 | F 2.09 | I 3.93 | W 2.74 | A 3.26 | Y 2.63 | K 2.52 | S 3.98 | R 2.79 | Q 2.35 | L 2.11
S4: T 2.53 | R 2.78 | V 3.9 | W 4.74 | Y 2.82 | Q 2.56
M11: I 3.17 | E 2.06 | K 2.5 | Y 2.38 | R 2.58 | A 2.06 | S 2.01 | F 3.31 | D 4.89 | Q 1.1 | N 2.42 | H 3 | P 3.16 | V 3.42 | W 2.89
V7: F 2.12 | Y 3.99 | W 4.44 | S 2.28 | A 2.07 | T 3.76 | K 4.05 | E 2.65 | D 3.57 | Q 2.74 | R 2.31 | P 2.8 | M 3.08 | H 2.11
N18: T 2.89 | I 2.63 | V 1.58 | C 2.1 | F 2.16 | K 2.59 | L 1.65 | E 2.5 | P 2.78 | R 1.49 | H 3.81 | W 1.92 | A 1.99 | G 3.62 | Y 2.09
L13: D 3.11 | P 3.47 | I 1.81 | K 1.78 | N 3.02 | T 2.38 | A 2.98 | G 2.79 | H 4.28 | R 2.15 | Y 3.48 | S 3.29 | V 1.84 | F 3.72
N23: G 2.54 | I 1 | M 2.42 | K 2.45 | W 2.57 | E 3.67 | Y 2.21 | R 1.92 | F 2.98 | D 3.86 | H 3.59 | C 2.15 | T 2.97 | V 2.99 | A 2.34
I19: N 3.66 | T 3.06 | S 2.07 | D 2.8 | A 3.24 | P 3.43 | K 1.76 | F 2.98 | Q 1.89 | Y 3.02 | R 2.2 | M 1.29
W8: Q 1.99 | C 1.95 | P 1.85 | H 2.85 | Y 2.21 | M 3.83 | K 3.73 | I 3.03 | R 2.67 | T 3.35 | E 3.97 | V 2.86 | G 2.81 | F 2.3 | L 1.76 | N 2.41
M9: S 3.82 | D 4.27 | K 3.05 | L 3.19 | G 2.87 | Q 3.1 | E 2.68 | A 3.79 | W 2.15 | N 2.1
L10: F 3.32 | G 2.08 | H 3.63 | N 1.95 | E 4.43 | C 1.39 | I 3.19 | D 2.5 | M 3.84 | T 3.58 | W 2.31 | S 4.89 | P 2.86 | V 2.99 | Y 3.48 | Q 3.16
A15: P 2.35 | H 3.28 | N 3.1 | E 2.84 | K 3.74 | W 2.2 | M 3.03 | L 2.56 | C 3.31 | Q 3.12 | D 3.06 | V 2.77
L21: D 2.99 | E 2.6 | G 3.21 | N 2.28 | R 4.98 | M 2.96 | H 2.2 | S 2.57 | P 1.98 | T 3.22 | C 3.7 | A 3.89 | F 2.73 | I 3.12
V16: E 2.6 | L 3.59 | G 2.36 | N 3.98 | C 3.32 | Q 3.43 | D 2.52 | P 2.75 | I 3.43 | H 2.06 | M 3.43 | A 2.77 | S 2.89 | F 4.27 | T 2.01
L12: G 3.74 | D 2.65 | C 3.75 | H 2.22 | R 2.69 | F 2.59 | P 3.18 | Q 2.51 | A 2.7 | M 3.06 | N 2.32
